# Results reported in article PMC12516561 (2025).
# B1: iRhom2 wild type (HA-tagged) [human] / 14-3-3 epsilon, endogenous [human (endogenous in HEK293T)] (parent)
# chain 1: MASADKNGGSVSSVSSSRLQSRKPPNLSITIPPPEKETQAPGEQDSMLPEGFQNRRLKKSQPRTWAAHTTACPPSFLPKRKNPAYLKSVSLQEPRSRWQESSEKRPGFRRQASLSQSIRKGAAQWFGVSGDWEGQRQQWQRRSLHHCSMRYGRLKASCQRDLELPSQEAPSFQGTESPKPCKMPKIVDPLARGRAFRHPEEMDRPHAPHPPLTPGVLSLTSFTSVRSGYSHLPRRKRMSVAHMSLQAAAALLKGRSVLDATGQRCRVVKRSFAFPSFLEEDVVDGADTFDSSFFSKEEMSSMPDDVFESPPLSASYFRGIPHSASPVSPDGVQIPLKEYGRAPVPGPRRGKRIASKVKHFAFDRKKRHYGLGVVGNWLNRSYRRSISSTVQRQLESFDSHRPYFTYWLTFVHVIITLLVICTYGIAPVGFAQHVTTQLVLRNKGVYESVKYIQQENFWVGPSSIDLIHLGAKFSPCIRKDGQIEQLVLRERDLERDSGCCVQNDHSGCIQTQRKDCSETLATFVKWQDDTGPPMDKSDLGQKRTSGAVCHQDPRTCEEPASSGAHIWPDDITKWPICTEQARSNHTGFLHMDCEIKGRPCCIGTKGSCEITTREYCEFMHGYFHEEATLCSQVHCLDKVCGLLPFLNPEVPDQFYRLWLSLFLHAGVVHCLVSVVFQMTILRDLEKLAGWHRIAIIFILSGITGNLASAIFLPYRAEVGPAGSQFGLLACLFVELFQSWPLLERPWKAFLNLSAIVLFLFICGLLPWIDNIAHIFGFLSGLLLAFAFLPYITFGTSDKYRKRALILVSLLAFAGLFAALVLWLYIYPINWPWIEHLTCFPFTSRFCEKYELDQVLH
# chain 2: MDDREDLVYQAKLAEQAERYDEMVESMKKVAGMDVELTVEERNLLSVAYKNVIGARRASWRIISSIEQKEENKGGEDKLKMIREYRQMVETELKLICCDILDVLDKHLIPAANTGESKVFYYKMKGDYHRYLAEFATGNDRKEAAENSLVAYKAASDIAMTELPPTHPIRLGLALNFSVFYYEILNSPDRACRLAKAAFDDAIAELDTLSEESYKDSTLIMQLLRDNLTLWTSDMQGDGEEQNKEALQDVEDENQ
# B2: iRhom2 wild type (HA-tagged) [human] / beta-COP, endogenous [human (endogenous in HEK293T)] (parent)
# chain 1: B1 chain 1
# chain 2: MTAAENVCYTLINVPMDSEPPSEISLKNDLEKGDVKSKTEALKKVIIMILNGEKLPGLLMTIIRFVLPLQDHTIKKLLLVFWEIVPKTTPDGRLLHEMILVCDAYRKDLQHPNEFIRGSTLRFLCKLKEAELLEPLMPAIRACLEHRHSYVRRNAVLAIYTIYRNFEHLIPDAPELIHDFLVNEKDASCKRNAFMMLIHADQDRALDYLSTCIDQVQTFGDILQLVIVELIYKVCHANPSERARFIRCIYNLLQSSSPAVKYEAAGTLVTLSSAPTAIKAAAQCYIDLIIKESDNNVKLIVLDRLIELKEHPAHERVLQDLVMDILRVLSTPDLEVRKKTLQLALDLVSSRNVEELVIVLKKEVIKTNNVSEHEDTDKYRQLLVRTLHSCSVRFPDMAANVIPVLMEFLSDNNEAAAADVLEFVREAIQRFDNLRMLIVEKMLEVFHAIKSVKIYRGALWILGEYCSTKEDIQSVMTEIRRSLGEIPIVESEIKKEAGELKPEEEITVGPVQKLVTEMGTYATQSALSSSRPTKKEEDRPPLRGFLLDGDFFVAASLATTLTKIALRYVALVQEKKKQNSFVAEAMLLMATILHLGKSSLPKKPITDDDVDRISLCLKVLSECSPLMNDIFNKECRQSLSHMLSAKLEEEKLSQKKESEKRNVTVQPDDPISFMQLTAKNEMNCKEDQFQLSLLAAMGNTQRKEAADPLASKLNKVTQLTGFSDPVYAEAYVHVNQYDIVLDVLVVNQTSDTLQNCTLELATLGDLKLVEKPSPLTLAPHDFANIKANVKVASTENGIIFGNIVYDVSGAASDRNCVVLSDIHIDIMDYIQPATCTDAEFRQMWAEFEWENKVTVNTNMVDLNDYLQHILKSTNMKCLTPEKALSGYCGFMAANLYARSIFGEDALANVSIEKPIHQGPDAAVTGHIRIRAKSQGMALSLGDKINLSQKKTSI
# Variants of: B1
# Experiment: co-immunoprecipitation (HA-IP) with western blot quantification
# Settings: with 14-3-3 epsilon, iRhom1/2 DKO HEK293T cells, three independent experiments, read off a plot
row,ratio to parent,Variant
1,0.92,chain 1 S239A
2,2.1,chain 1 P233A R234A R235A K236A R237A M238A S239A
3,1.3,chain 1 P233A R234A R235A K236A R237A M238A

# Variants of: B2
# Experiment: as above
# Settings: iRhom1/2 DKO HEK293T cells, three independent experiments, read off a plot
row,ratio to parent,Variant
1,1.15,chain 1 P233A R234A R235A K236A R237A M238A
2,0.98,chain 1 S239A
3,1.05,chain 1 P233A R234A R235A K236A R237A M238A S239A
